14 molecules from patent US20200199241A1 (Chugai, published 2020) can be followed below.

Numbering of substitutions follows the chain as printed. Numbers in names are those of the source.

Sequences and labels used below:
T1: FcγRIIa type R (human, UniProt P12318 36-217)
T1 construct: also called FcγRIIaR; FcγRIIa(R)
T1 chain: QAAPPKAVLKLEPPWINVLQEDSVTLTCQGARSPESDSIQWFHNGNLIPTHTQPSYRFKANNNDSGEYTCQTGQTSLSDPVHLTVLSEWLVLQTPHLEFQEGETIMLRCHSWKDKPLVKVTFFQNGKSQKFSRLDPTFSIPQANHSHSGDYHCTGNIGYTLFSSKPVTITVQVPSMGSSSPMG

T2: FcγRIIa type H (human, UniProt P12318 36-217)
T2 construct: also called FcγRIIaH; FcγRIIa(H)
T2 sequence: T1 chain with R133H

T3: FcγRIIb (human, UniProt P31994 43-217, limits assumed)
T3 construct: also called FcγIIB; CD32
T3 sequence: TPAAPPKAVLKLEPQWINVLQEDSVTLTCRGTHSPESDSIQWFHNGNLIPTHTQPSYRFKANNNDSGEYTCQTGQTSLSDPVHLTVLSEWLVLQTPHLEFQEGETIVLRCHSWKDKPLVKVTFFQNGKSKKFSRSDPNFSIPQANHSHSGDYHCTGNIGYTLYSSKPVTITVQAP

T4: FcγRIIa type R (human, UniProt P12318 36-217)
T4 construct: also called FcγRIIaR; FcgRIIaR
T4 chain: T1 chain

T5: FcγRIIa type H (human, UniProt P12318 36-217)
T5 construct: also called FcγRIIaH; FcγRIIH
T5 sequence: T1 chain with R133H

T6: FcγRIIb (human, UniProt P31994 43-217, limits assumed)
T6 construct: also called FcgRIIb; FcγIIB
T6 sequence: T3 sequence

T7: human FcγRIIa type R (human, UniProt P12318 36-217)
T7 construct: also called FcγRIIaR; FcγRIIa(R)
T7 chain: T1 chain

T8: human FcγRIIa type H (human, UniProt P12318 36-217)
T8 construct: also called FcγRIIaH; FcγRIIa(H)
T8 sequence: T1 chain with R133H

T9: human FcγRIIb (human, UniProt P31994 43-217, limits assumed)
T9 construct: also called FcγIIB
T9 sequence: T3 sequence

B1: IL6R-BP191/IL6R-L (antibody, human IgG1)
heavy: QVQLQESGPGLVKPSETLSLTCAVSGHSISHDHAWSWVRQPPGEGLEWIGFISYSGITNYNPSLQGRVTISRDNSKNTLYLQMNSLRAEDTAVYYCARSLARTTAMDYWGEGTLVTVSSASTKGPSVFPLAPSSKSTSGGTAALGCLVKDYFPEPVTVSWNSGALTSGVHTFPAVLQSSGLYSLSSVVTVPSSSLGTQTYICNVNHKPSNTKVDKKVEPKSCDKTHTCPPCPAPDLLGGDSVFLFPPKPKDTLMISRTPEVTCVVVDVSDEDGEVKFNWYVDGVEVHNAKTKPREEQYNSTYRVVSVLTVLHQDWLNGKEYKCKVSNAALPKPIEKTISKAKGQPREPQVYTLPPSRDELTKNQVSLTCLVKGFYPSDIAVEWESNGQPENNYKTTPPVLDSDGSFFLYSKLTVDKSRWQQGNVFSCSVMHEALHNHYTQESLSLSP
light: DIQMTQSPSSLSASVGDRVTITCRASQDISSYLNWYQQKPGKAPKLLIYYTSRLHSGVPSRFSGSGSGTDFTFTISSLQPEDIATYYCQQGNTLPYTFGQGTKVEIK
notes: Anti-IL-6R human IgG1 variant; copies: 2 + 2
B2: IL6R-BP183/IL6R-L (antibody, human IgG1)
heavy: B1 heavy with L236Y, D270H
light: B1 light
notes: as for B1
B3: IL6R-BP185/IL6R-L (antibody, human IgG1)
heavy: B1 heavy with L236Y, G239D, D270H
light: B1 light
notes: as for B1
B4: IL6R-BP184/IL6R-L (antibody, human IgG1)
heavy: B1 heavy with D270H, A328K
light: B1 light
notes: as for B1
B5: IL6R-BP107/IL6R-L (antibody, human IgG1)
heavy: B1 heavy with D235E, D270E, G273P, A328K, K332A
light: B1 light
notes: IgG1; Fc variant of IL6R-B3; copies: 2 + 2
B6: IL6R-BP117/IL6R-L (antibody, human IgG1)
heavy: B1 heavy with D235E, D270H, G273P, A328D, K332A
light: B1 light
notes: as for B5
B7: IL6R-BP126/IL6R-L (antibody, human IgG1)
heavy: B1 heavy with D235E, D270H, G273P, A328L, K332A
light: B1 light
notes: as for B5
B8: IL6R-BP112/IL6R-L (antibody, human IgG1)
heavy: B1 heavy with D235E, D270H, A328K, K332A
light: B1 light
notes: as for B5
B9: IL6R-BP078/IL6R-L (antibody, human IgG1)
heavy: B1 heavy with D235E, D270H, G273P, A328K, K332M
light: B1 light
notes: as for B5
B10: IL6R-BP106/IL6R-L (antibody, human IgG1)
heavy: B1 heavy with D235E, G273P, A328K, K332A
light: B1 light
notes: as for B5
B11: IL6R-BP120/IL6R-L (antibody, human IgG1)
heavy: B1 heavy with D235E, D270H, G273P, A328E, K332A
light: B1 light
notes: as for B5
B12: IL6R-BP911/IL6R-L (antibody, human IgG1)
heavy: B1 heavy with D235E, D270H, G273P, A328K
light: B1 light
notes: as for B5
B13: IL6R-BP121/IL6R-L (antibody, human IgG1)
heavy: B1 heavy with D235E, D270H, G273P, A328Q, K332A
light: B1 light
notes: Alteration introduced into IL6R-B3; also called P238D/K326Q
B14: IL6R-BP912/IL6R-L (antibody, human IgG1)
heavy: B1 heavy with D235E, D270H, G273P, A328K, K332R
light: B1 light
notes: Alteration introduced into IL6R-B3; also called P238D/A330R

For the first assay, the target named is T10, FcγRIa (human, UniProt P12314 16-292, limits assumed).
T10 construct: also called CD64
Description: SPR (Biacore), method of Example 14. A general note: Surface plasmon resonance follows binding to a sensor surface in real time, without labels.
T10 sequence (P12314 16-292 limits assumed): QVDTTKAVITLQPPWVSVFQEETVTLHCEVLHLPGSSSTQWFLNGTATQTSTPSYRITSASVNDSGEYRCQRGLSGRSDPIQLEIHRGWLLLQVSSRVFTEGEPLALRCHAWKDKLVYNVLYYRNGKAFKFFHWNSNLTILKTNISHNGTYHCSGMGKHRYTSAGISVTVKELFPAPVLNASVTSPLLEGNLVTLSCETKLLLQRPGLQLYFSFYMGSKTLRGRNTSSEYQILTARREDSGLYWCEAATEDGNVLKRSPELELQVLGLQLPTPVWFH
Description: (§1) Furthermore, KD(IIaR)/KD(IIb) and KD(IIaH)/KD(IIb) in the table respectively represent the value obtained by dividing the KD value of each variant for FcγRIIaR by the KD value of each variant for FcγRIIb, and the value obtained by dividing the KD value of each variant for FcγRIIaH by the KD value of each variant for FcγRIIb. KD(IIb) of the parent polypeptide/KD(IIb) of the altered polypeptide refers to the value obtained by dividing the KD value of the parent polypeptide for FcγRIIb by the KD value of each variant for FcγRIIb.
A word on the Kd: it is the free concentration of one partner at which half of the binding sites on the other are occupied at equilibrium, for simple one-to-one binding. For the molecule B1, the equilibrium dissociation constant (Kd) came to 0.004 µM.

B2: binding was characterised by a dissociation constant (Kd) of 0.017 µM.

B3 gave a Kd of 0.063 µM.

On to B4, for which the dissociation constant (Kd) was 0.011 µM.

The target in the next assay is T1, FcγRIIa type R. Description: SPR (Biacore), method of Example 14.
Description: as §1
As for B1, binding was characterised by a dissociation constant (Kd) of 3 µM.

For B2, the Kd stood at 2.6 µM.

B3 showed a Kd of 0.88 µM.

As for B4, the Kd was determined as 2.3 µM.

The target of another assay is T2, FcγRIIa type H. As to the kind of experiment: SPR (Biacore), method of Example 14.
Description: as §1
Regarding B1, the equilibrium dissociation constant (Kd) came to 27 µM.

For B2, the dissociation constant (Kd) amounted to 15 µM.

In the case of B4, the affinity, expressed as Kd, was 30 µM.

Another assay addresses T3, FcγRIIb. As to the kind of experiment: SPR (Biacore), method of Example 14.
Description: as §1
B1: the Kd worked out at 0.15 µM.

The molecule B2 yielded a Kd of 0.24 µM.

For B3, binding was put at a Kd of 0.069 µM.

B4 gave a Kd of 0.13 µM.

Another assay addresses T11, FcγRIIIa type V (human, UniProt P08637 17-208, limits assumed).
T11 construct: also called FcγRIIIaV; FcγRIIIa(V)
As to the kind of experiment: SPR (Biacore), method of Example 14.
T11 sequence (P08637 17-208 F176V limits assumed): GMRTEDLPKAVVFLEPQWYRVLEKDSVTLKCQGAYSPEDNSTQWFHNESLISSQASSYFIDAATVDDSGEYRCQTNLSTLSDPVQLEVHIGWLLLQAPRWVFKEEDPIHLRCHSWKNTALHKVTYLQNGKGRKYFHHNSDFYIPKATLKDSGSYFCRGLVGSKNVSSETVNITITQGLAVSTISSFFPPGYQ
Description: as §1
On to B1, for which binding was characterised by a dissociation constant (Kd) of 49 µM.

The molecule B2 registered a Kd of 56 µM.

Consider B3, for which the equilibrium dissociation constant (Kd) is 36 µM.

Take B4: binding was characterised by a dissociation constant (Kd) of 66 µM.

Another assay has as its target T12, FcγRIa (human, UniProt P12314 16-292, limits assumed).
T12 construct: also called FcgRIa; CD64
Description: SPR (Biacore), FcγR over captured antibody.
T12 sequence (P12314 16-292 limits assumed): as the sequence (P12314 16-292 limits assumed) above
B5 gave a Kd of 0.0015 µM.

Molecule B6 gave a Kd of 0.0041 µM.

The molecule B7 registered a dissociation constant (Kd) of 0.0074 µM.

B8: binding was put at a Kd of 0.0065 µM.

The molecule B9 had a dissociation constant Kd of 0.0082 µM.

For B10, the dissociation constant Kd was 0.004 µM.

The molecule B11 came in with a dissociation constant Kd of 0.0066 µM.

On to B12, for which binding was put at a Kd of 0.049 µM.

The next assay addresses T4, FcγRIIa type R. As to the kind of experiment: SPR (Biacore), FcγR over captured antibody.
As to B5, binding was characterised by a dissociation constant (Kd) of 12 µM.

As for B6, binding was put at a Kd of 9.2 µM.

B7 yielded a dissociation constant (Kd) of 11 µM.

In the case of B8, the affinity, expressed as Kd, was 3.5 µM.

For B9, the dissociation constant Kd was 15 µM.

As to B10, binding was characterised by a dissociation constant (Kd) of 11 µM.

Turning to B11, binding was characterised by a dissociation constant (Kd) of 9.6 µM.

Regarding B12, the equilibrium dissociation constant (Kd) came out at 16 µM.

In the next assay the target is T5, FcγRIIa type H. As to the kind of experiment: SPR (Biacore), FcγR over captured antibody.
The molecule B5 came in with a Kd of 52 µM.

With B6, the affinity, expressed as Kd, was 41 µM.

In turn, B7 returned a dissociation constant (Kd) of 45 µM.

Take B8: binding was put at a Kd of 35 µM.

B9 showed an equilibrium dissociation constant (Kd) of 45 µM.

Molecule B10 showed a dissociation constant Kd of 36 µM.

The molecule B11 yielded a Kd of 65 µM.

B12 gave a Kd of 37 µM.

The target of another assay is T6, FcγRIIb. Description: SPR (Biacore), FcγR over captured antibody.
B5 yielded a Kd of 0.93 µM.

With B6, the dissociation constant Kd was 0.8 µM.

Consider B7, for which binding was put at a Kd of 1.4 µM.

For the molecule B8, binding was characterised by a dissociation constant (Kd) of 0.32 µM.

Take B9: the dissociation constant (Kd) amounted to 1.1 µM.

As to B10, binding was characterised by a dissociation constant (Kd) of 0.93 µM.

With B11, the Kd is 1 µM.

B12 came in with an equilibrium dissociation constant (Kd) of 0.89 µM.

The target in another assay is T13, FcγRIIIa type V (human, UniProt P08637 17-208, limits assumed).
T13 construct: also called FcγRIIIaV; FcgRIIIaV
As to the kind of experiment: SPR (Biacore), FcγR over captured antibody.
T13 sequence (P08637 other isoform, or with tags, fused parts or gaps limits assumed): as the sequence (P08637 17-208 F176V limits assumed) above, with A179S counted along it
In turn, B5 displayed a Kd of 63 µM.

For the molecule B6, binding was put at a Kd of 67 µM.

Molecule B7 showed a dissociation constant Kd of 56 µM.

As for B8, the affinity, expressed as Kd, was 69 µM.

With B9, binding was characterised by a dissociation constant (Kd) of 78 µM.

The molecule B10 registered a Kd of 55 µM.

B11: binding was characterised by a dissociation constant (Kd) of 79 µM.

In turn, B12 yielded a Kd of 58 µM.

A further assay has as its target T3, FcγRIIb. As to the kind of experiment: ratio of SPR KD values, parent IL6R-B3/IL6R-L.
Description: as §1
Turning to B1, the “KD(IIb) of the parent polypeptide/KD(IIb) of altered polypeptide” value (from here on “KD(IIb) … of altered polypeptide”) worked out at 21.2 fold.

In the case of B2, the “KD(IIb) … of altered polypeptide” value was determined as 12.9 fold.

For B3, the “KD(IIb) … of altered polypeptide” value came out at 44.5 fold.

On to B4, for which the “KD(IIb) … of altered polypeptide” value is 24.5 fold.

For a further assay, the target named is T14, human FcγRIa (human, UniProt P12314 16-292, limits assumed).
T14 construct: also called CD64
T14 sequence (P12314 16-292 limits assumed): as the sequence (P12314 16-292 limits assumed) above
As to the kind of experiment: SPR (Biacore), binding amount relative to IL6R-BF648/IL6R-L = 100.
B13 gave a relative binding of 118.

B14 gave a relative binding of 60.

Another assay has as its target T7, human FcγRIIa type R. The assay is described as above.
As to B13, the relative binding was determined as 155.

B14 registered a relative binding of 81.

For a further assay, the target named is T8, human FcγRIIa type H. The description is as above.
B13: the relative binding came out at 135.

As for B14, the relative binding was 93.

Another assay has as its target T9, human FcγRIIb. The description is as above.
B13 had a relative binding of 113.

The molecule B14 showed a relative binding of 103.

The target in a further assay is T15, human FcγRIIIa type V (human, UniProt P08637 17-208, limits assumed).
T15 construct: also called FcγRIIIaV; FcγRIIIa(V)
T15 sequence (P08637 other isoform, or with tags, fused parts or gaps limits assumed): as the sequence (P08637 17-208 F176V limits assumed) above, with A179S counted along it
Described as above.
With B13, the relative binding was 157.

Turning to B14, the relative binding was determined as 97.

A further assay concerns the target T3, FcγRIIb. Description: SPR (Biacore); KD for FcγRIIaH divided by KD for FcγRIIb of the same antibody; column head in Table 52-1.
Description: as §1
As for B1, the “KD(IIaH)/KD(IIb)” value came to 185.

For B2, the “KD(IIaH)/KD(IIb)” value is 62.5.

For the molecule B3, the “KD(IIaH)/KD(IIb)” value is 105.

On to B4, for which the “KD(IIaH)/KD(IIb)” value came out at 238.

For another assay, the target named is T3, FcγRIIb. As to the kind of experiment: SPR (Biacore); KD for FcγRIIaR divided by KD for FcγRIIb of the same antibody; column head in Table 52-1.
Description: as §1
As for B1, the “KD(IIaR)/KD(IIb)” value worked out at 20.3.

For the molecule B2, the “KD(IIaR)/KD(IIb)” value was 10.7.

With B3, the “KD(IIaR)/KD(IIb)” value is 12.6.

Consider B4, for which the “KD(IIaR)/KD(IIb)” value worked out at 18.2.
